From patent US20010000783A1, “Treatment of interstitial cystitis” (priority 1998, published 2001) come the findings set out here.

Holding throughout (format): cell-based
Assay [1] has as its system primary human bladder epithelial cells grown from IC patient biopsy specimens. Nature of the assay: Inhibition of HPLC-purified APF activity by rhHB-EGF, 3H-thymidine incorporation, cells from IC patient biopsies. The conditions noted are these: 10 pg/10^7 cells HPLC-purified APF, 48 hours; cells from IC patients; FIG. 10B. As to the method:
(§1) Primary normal adult human bladder epithelial (HBE) cells were cultured by the method described above in Part II. On the third day of incubation, cell medium was replaced by serum free MEM containing the less than 3 kDa fraction (i.e, containing the APF) of urine specimens from IC patients or controls (i.e., that part containing the anti-proliferative factor or APF described in related application Ser. No. 08/944,202), or HPLC-purified APF or its mock control along with varying concentrations of recombinant HB-EGF (0-100 ng/ml), EGF (0-100 ng/ml), or IGF-1 (0-300 pg/ml) [all from R & D Systems, Minneapolis, Minn.] diluted in phosphate buffered saline (1:1:1). Urine was prepared by the method described above in Part II and HPLC purified APF was prepared as described above. Following an additional 48 hours of incubation at 37 degrees C. in a 5% CO2 atmosphere, cell proliferation was assessed by ^3H-thymidine incorporation according to the published methods^38.
(§2) Cell proliferation was determined 48 hours later by 3H-thymidine incorporation. Bar values indicate the mean of triplicate determinations. Vertical lines indicate the standard of error of the mean.

The subject of assay [2] is Normal human bladder epithelial cells. Description: Inhibition of APF activity by recombinant growth factors, low molecular weight urine fractions, 3H-thymidine incorporation. As to the method:
as §1
Normal human bladder epithelial cells were exposed simultaneously to recombinant human growth factors (HB-EGF, EGF, or IGF1) and low molecular weight fractions from IC patients or control urine specimens. Cell proliferation was determined 48 hours later by 3H-thymidine incorporation (FIGS. 6A-6C). Bar values indicate the mean of 5-8 determinations. Vertical lines indicate the standard error of the mean.

The test system of assay [3] is primary human bladder epithelial cells grown from normal bladder tissue. Nature of the assay: Inhibition of HPLC-purified APF activity by rhHB-EGF, 3H-thymidine incorporation, cells from normal bladder tissue. The note with it: 10 pg/10^7 cells HPLC-purified APF, 48 hours; cells from controls; FIG. 10A. Here is the method:
as §1, §2

B1: heparin-binding epidermal growth factor-like growth factor (protein, UniProt Q99075 63-148, looked up)
Heparin-binding EGF-like …: DLQEADLDLLRVTLSSKPQALATPNKEEHGKRKKKGKGLGKKRDPCLRKYKDFCIHGECKYVKELRAPSCICHPGYHGERCHGLSL
On to B1, for which the “inhibition of APF's antiproliferative effects” value in assay [1] and in assay [3] was “can inhibit APF's antiproliferative effects” throughout. In addition, the “proliferation of cells exposed to urine from IC patients” value in assay [2] (high concentrations of rhHB-EGF, compared with cells exposed to control urines, FIG. 6A) is reported as “stimulated, more than that of cells exposed to control urines”. In assay [2] (simultaneous exposure to recombinant growth factor and <3 kDa urine fraction, 48 hours, HB-EGF 0-100 ng/ml (effect evident at 10 ng/ml), EGF 0-100 ng/ml, IGF-1 0-300 pg/ml, FIGS. 6A-6C), the “inhibition of APF antiproliferative activity” value is on record as “resulted in inhibition of APF antiproliferative activity”.
